According to paper PMC6717765, “p32 is a negative regulator of p53 tetramerization and transactivation” (Molecular Oncology, 2019):

B1: GST-p32 (233-250) (domain or fragment, UniProt Q07021 233-250, looked up)
chain: WALYDHLMDFLADRGVDN
notes: source: expressed and purified on glutathione-Sepharose 4B beads
B2: GST-p32 (233-250) D249A (domain or fragment, UniProt Q07021 233-250, looked up)
chain: WALYDHLMDFLADRGVAN
notes: also called GST-p32 D249A; source: expressed and purified on glutathione-Sepharose 4B beads
B3: His-tagged p32 (wild type, recombinant) (natural protein, UniProt Q07021 74-282, looked up)
chain: LHTDGDKAFVDFLSDEIKEERKIQKHKTLPKMSGGWELELNGTEAKLVRKVAGEKITVTFNINNSIPPTFDGEEEPSQGQKVEEQEPELTSTPNFVVEVIKNDDGKKALVLDCHYPEDEVGQEDEAESDIFSIREVSFQSTGESEWKDTNYTLNTDSLDWALYDHLMDFLADRGVDNTFADELVELSTALEHQEYITFLEDLKSFVKSQ
notes: p32 (gC1qR/C1QBP/HABP1); also called His-p32; mature p32
B4: GST-p32 C-terminal domain (residues 233-282) (domain or fragment, UniProt Q07021 233-282, looked up)
chain: WALYDHLMDFLADRGVDNTFADELVELSTALEHQEYITFLEDLKSFVKSQ
notes: as for B1
B5: GST-p53 tetramerization domain (residues 328-368) (domain or fragment, UniProt P04637 328-368, looked up)
chain: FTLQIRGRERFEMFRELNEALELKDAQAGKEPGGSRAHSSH
notes: source: bacterially produced, purified on glutathione-Sepharose 4B beads

Legend:
Conditions in all cases: both partners purified
[1] = target: T1, FLAG-tagged p53 (recombinant) (UniProt P04637 1-393); assay: pull-down; GST or GST-p32 fusions immobilised on glutathione-Sepharose beads, FLAG-tagged p53 in solution; overnight at 4 °C; 20 mM Tris/HCl pH 7.3, 0.2 M KCl, 0.2 mM EDTA, 20% glycerol, 0.01% Nonidet P-40; blot with anti-FLAG
T1 construct: p53; also called FLAG-p53; source: E. coli Rosetta 2 (DE3) pLysS, purified (anti-FLAG M2 agarose)
T1 sequence (P04637 whole entry, the tested form may be a part): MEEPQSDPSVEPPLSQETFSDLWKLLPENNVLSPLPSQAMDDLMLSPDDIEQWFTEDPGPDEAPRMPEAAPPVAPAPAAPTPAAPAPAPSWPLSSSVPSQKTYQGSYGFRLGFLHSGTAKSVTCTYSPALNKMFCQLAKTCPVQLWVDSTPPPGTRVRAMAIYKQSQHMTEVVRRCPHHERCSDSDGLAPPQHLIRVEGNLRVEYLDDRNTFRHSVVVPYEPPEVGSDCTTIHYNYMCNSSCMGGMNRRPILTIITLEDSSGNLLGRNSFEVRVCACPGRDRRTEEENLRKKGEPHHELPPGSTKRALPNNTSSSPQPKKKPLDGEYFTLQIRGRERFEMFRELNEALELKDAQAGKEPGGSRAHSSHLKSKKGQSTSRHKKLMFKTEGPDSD

[2] = target: T1, FLAG-tagged p53 (recombinant); assay: cross-linking; purified FLAG-p53 with or without p32 (molar ratio 1:1, 1:2, 1:4) overnight at 4 °C; 10 mM Tris/HCl pH 7.5, 50 mM NaCl, 0.1 mM EDTA, 1 mM DTT, 5% glycerol; 0.01% glutaraldehyde 10 min at 22 °C; SDS/PAGE and anti-FLAG blot for monomers, dimers, tetramers
GST-p53 = target: T2, GST-p53 (UniProt P04637 1-393); assay: pull-down; GST or GST-p53 fusions immobilised on glutathione-Sepharose beads, His-tagged p32 in solution; overnight at 4 °C; 20 mM Tris/HCl pH 7.3, 0.2 M KCl, 0.2 mM EDTA, 20% glycerol, 0.01% Nonidet P-40; blot with anti-His
T2 construct: p53; also called GST-fused p53; source: bacterially produced, purified on glutathione-Sepharose 4B beads
T2 sequence (P04637 whole entry, the tested form may be a part): as above

[3] = target: B3; assay: as above

Row | binding result [1] | Binder | also measured
1 | binds | B1 | –
2 | binds | B2 | –
3 | – | B3 | binding result [2]: binds; binding result (GST-p53): binds
4 | binds | B4 | –
5 | – | B5 | binding result [3]: binds
